Assay results as given in IntAct's records for PubMed 14532120.

B1: Interferon alpha/beta receptor 1 (Homo sapiens), P17181 (parent)
chain: MMVVLLGATTLVLVAVAPWVLSAAAGGKNLKSPQKVEVDIIDDNFILRWNRSDESVGNVTFSFDYQKTGMDNWIKLSGCQNITSTKCNFSSLKLNVYEEIKLRIRAEKENTSSWYEVDSFTPFRKAQIGPPEVHLEAEDKAIVIHISPGTKDSVMWALDGLSFTYSLVIWKNSSGVEERIENIYSRHKIYKLSPETTYCLKVKAALLTSWKIGVYSPVHCIKTTVENELPPPENIEVSVQNQNYVLKWDYTYANMTFQVQWLHAFLKRNPGNHLYKWKQIPDCENVKTTQCVFPQNVFQKGIYLLRVQASDGNNTSFWSEEIKFDTEIQAFLLPPVFNIRSLSDSFHIYIGAPKQSGNTPVIQDYPLIYEIIFWENTSNAERKIIEKKTDVTVPNLKPLTVYCVKARAHTMDEKLNKSSVFSDAVCEKTKPGNTSKIWLIVGICIALFALPFVIYAAKVFLRCINYVFFPSLKPSSSIDEYFSEQPLKNLLLSTSEEQIEKCFIIENISTIATVEETNQTDEDHKKYSSQTSQDSGNYSNEDESESKTSEELQQDFV
B2: Interferon alpha/beta receptor 1 (Mus musculus), P33896 (parent)
chain: MLAVVGAAALVLVAGAPWVLPSAAGGENLKPPENIDVYIIDDNYTLKWSSHGESMGSVTFSAEYRTKDEAKWLKVPECQHTTTTKCEFSLLDTNVYIKTQFRVRAEEGNSTSSWNEVDPFIPFYTAHMSPPEVRLEAEDKAILVHISPPGQDGNMWALEKPSFSYTIRIWQKSSSDKKTINSTYYVEKIPELLPETTYCLEVKAIHPSLKKHSNYSTVQCISTTVANKMPVPGNLQVDAQGKSYVLKWDYIASADVLFRAQWLPGYSKSSSGSRSDKWKPIPTCANVQTTHCVFSQDTVYTGTFFLHVQASEGNHTSFWSEEKFIDSQKHILPPPPVITVTAMSDTLLVYVNCQDSTCDGLNYEIIFWENTSNTKISMEKDGPEFTLKNLQPLTVYCVQARVLFRALLNKTSNFSEKLCEKTRPGSFSTIWIITGLGVVFFSVMVLYALRSVWKYLCHVCFPPLKPPRSIDEFFSEPPSKNLVLLTAEEHTERCFIIENTDTVAVEVKHAPEEDLRKYSSQTSQDSGNYSNEEEESVGTESGQAVLSKAPCGGPCSVPSPPGTLEDGTCFLGNEKYLQSPALRTEPALLC

Variants of: B1
Settings: with fbw1b_human FBXW11, Q9UKB1
Sequence of fbw1b_human FBXW11, Q9UKB1 (Q9UKB1 whole entry): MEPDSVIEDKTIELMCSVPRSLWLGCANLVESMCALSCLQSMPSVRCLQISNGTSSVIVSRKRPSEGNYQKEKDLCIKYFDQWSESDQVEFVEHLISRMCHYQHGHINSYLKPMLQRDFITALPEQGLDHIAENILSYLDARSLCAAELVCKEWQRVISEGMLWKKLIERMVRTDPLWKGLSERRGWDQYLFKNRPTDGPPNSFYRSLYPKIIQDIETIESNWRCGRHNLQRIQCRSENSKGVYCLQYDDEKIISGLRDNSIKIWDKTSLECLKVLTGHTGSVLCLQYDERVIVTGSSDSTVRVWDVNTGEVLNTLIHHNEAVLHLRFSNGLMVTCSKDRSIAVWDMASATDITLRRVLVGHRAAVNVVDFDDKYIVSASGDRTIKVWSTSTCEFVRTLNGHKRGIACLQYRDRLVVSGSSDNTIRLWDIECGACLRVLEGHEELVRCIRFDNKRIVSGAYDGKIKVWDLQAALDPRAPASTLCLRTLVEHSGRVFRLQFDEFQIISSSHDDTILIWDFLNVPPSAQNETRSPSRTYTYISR

Row | Variant | effect of a mutation on the interaction
1 | MMVVLLGATTLVLVAVAPWVLSAAAGGKNLKSPQKVEVDIIDDNFILRWNRSDESVGNVTFSFDYQKTGMDNWIKLSGCQNITSTKCNFSSLKLNVYEEIKLRIRAEKENTSSWYEVDSFTPFRKAQIGPPEVHLEAEDKAIVIHISPGTKDSVMWALDGLSFTYSLVIWKNSSGVEERIENIYSRHKIYKLSPETTYCLKVKAALLTSWKIGVYSPVHCIKTTVENELPPPENIEVSVQNQNYVLKWDYTYANMTFQVQWLHAFLKRNPGNHLYKWKQIPDCENVKTTQCVFPQNVFQKGIYLLRVQASDGNNTSFWSEEIKFDTEIQAFLLPPVFNIRSLSDSFHIYIGAPKQSGNTPVIQDYPLIYEIIFWENTSNAERKIIEKKTDVTVPNLKPLTVYCVKARAHTMDEKLNKSSVFSDAVCEKTKPGNTSKIWLIVGICIALFALPFVIYAAKVFLRCINYVFFPSLKPSSSIDEYFSEQPLKNLLLSTSEEQIEKCFIIENISTIATVEETNQTDEDHKKYSSQTSQDAGNYSNEDESESKTSEELQQDFV [S535A] | disrupting interaction

Variants of: B1
Settings: with fbw1b_human FBXW11, Q9UKB1
Remark: another data set of the same source

Row | Variant | effect of a mutation on the interaction
2 | MMVVLLGATTLVLVAVAPWVLSAAAGGKNLKSPQKVEVDIIDDNFILRWNRSDESVGNVTFSFDYQKTGMDNWIKLSGCQNITSTKCNFSSLKLNVYEEIKLRIRAEKENTSSWYEVDSFTPFRKAQIGPPEVHLEAEDKAIVIHISPGTKDSVMWALDGLSFTYSLVIWKNSSGVEERIENIYSRHKIYKLSPETTYCLKVKAALLTSWKIGVYSPVHCIKTTVENELPPPENIEVSVQNQNYVLKWDYTYANMTFQVQWLHAFLKRNPGNHLYKWKQIPDCENVKTTQCVFPQNVFQKGIYLLRVQASDGNNTSFWSEEIKFDTEIQAFLLPPVFNIRSLSDSFHIYIGAPKQSGNTPVIQDYPLIYEIIFWENTSNAERKIIEKKTDVTVPNLKPLTVYCVKARAHTMDEKLNKSSVFSDAVCEKTKPGNTSKIWLIVGICIALFALPFVIYAAKVFLRCINYVFFPSLKPSSSIDEYFSEQPLKNLLLSTSEEQIEKCFIIENISTIATVEETNQTDEDHKKYSSQTSQDAGNYSNEDESESKTSEELQQDFV [S535A] | decreasing interaction

Variants of: B2
Settings: with fbw1b_human FBXW11, Q9UKB1

Row | Variant | effect of a mutation on the interaction
3 | MLAVVGAAALVLVAGAPWVLPSAAGGENLKPPENIDVYIIDDNYTLKWSSHGESMGSVTFSAEYRTKDEAKWLKVPECQHTTTTKCEFSLLDTNVYIKTQFRVRAEEGNSTSSWNEVDPFIPFYTAHMSPPEVRLEAEDKAILVHISPPGQDGNMWALEKPSFSYTIRIWQKSSSDKKTINSTYYVEKIPELLPETTYCLEVKAIHPSLKKHSNYSTVQCISTTVANKMPVPGNLQVDAQGKSYVLKWDYIASADVLFRAQWLPGYSKSSSGSRSDKWKPIPTCANVQTTHCVFSQDTVYTGTFFLHVQASEGNHTSFWSEEKFIDSQKHILPPPPVITVTAMSDTLLVYVNCQDSTCDGLNYEIIFWENTSNTKISMEKDGPEFTLKNLQPLTVYCVQARVLFRALLNKTSNFSEKLCEKTRPGSFSTIWIITGLGVVFFSVMVLYALRSVWKYLCHVCFPPLKPPRSIDEFFSEPPSKNLVLLTAEEHTERCFIIENTDTVAVEVKHAPEEDLRKYSSQTSQDAGNYSNEEEESVGTESGQAVLSKAPCGGPCSVPSPPGTLEDGTCFLGNEKYLQSPALRTEPALLC [S526A] | disrupting interaction
